Reference: the supplement of paper PMC9112550, “Optimization of the antimicrobial peptide Bac7 by deep mutational scanning” (BMC Biology, 2022)

System: Escherichia coli TOP10
Assay: shrunken log2 fold change of peptide-encoding DNA abundance (4.5 h post-induction vs induction); higher = less antimicrobial activity (less host growth inhibition)
Settings: time post-induction: 4.5 h; library: site-saturation at positions 5, 18, 19, 20
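Further: peptides expressed intracellularly from a pBAD plasmid library in pooled LB shake-flask culture, induced with 0.3% L-arabinose, DNA abundance read by NGS, three biological replicates, DESeq2 with apeglm shrinkage.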

Sequence	shrunken log2 fold change
RRIRGRPPRLPRPRPRPTFYPRP	0.264
RRIRYRPPRLPRPRPRPVADPRP	-0.127
RRIRLRPPRLPRPRPRPFCVPRP	-0.265
RRIRRRPPRLPRPRPRPYKYPRP	-0.415
RRIRDRPPRLPRPRPRPMFIPRP	-0.0363
RRIRYRPPRLPRPRPRPPIWPRP	-0.0337
RRIRSRPPRLPRPRPRPWHKPRP	-0.195
RRIRARPPRLPRPRPRPFQFPRP	-0.158
RRIRDRPPRLPRPRPRPKHKPRP	-0.173
RRIRRRPPRLPRPRPRPIAMPRP	0.0579
RRIRCRPPRLPRPRPRPTHKPRP	0.298
RRIRARPPRLPRPRPRPCRWPRP	0.26
RRIRNRPPRLPRPRPRPSHAPRP	-0.859
RRIRHRPPRLPRPRPRPCRLPRP	0.0253
RRIRERPPRLPRPRPRPWCIPRP	-1.84
RRIRCRPPRLPRPRPRPHMLPRP	-0.431
RRIRLRPPRLPRPRPRPKKIPRP	-0.104
RRIRWRPPRLPRPRPRPNTKPRP	-0.187
RRIRKRPPRLPRPRPRPKCQPRP	0.03
RRIRYRPPRLPRPRPRPPHGPRP	-0.0619
RRIRTRPPRLPRPRPRPCMNPRP	-1.43
RRIRIRPPRLPRPRPRPRCNPRP	-0.393
RRIRCRPPRLPRPRPRPWEIPRP	0.0501
RRIRERPPRLPRPRPRPQMPPRP	-0.292
RRIRYRPPRLPRPRPRPYFLPRP	-1.23

Sequence	shrunken log2 fold change
RRIRCRPPRLPRPRPRPFHRPRP	0.00717
RRIRWRPPRLPRPRPRPWGVPRP	0.132
RRIRTRPPRLPRPRPRPRAIPRP	0.196
RRIRTRPPRLPRPRPRPMVCPRP	0.0039
RRIRLRPPRLPRPRPRPVCYPRP	-0.156
RRIRDRPPRLPRPRPRPCRRPRP	-0.155
RRIRVRPPRLPRPRPRPSHDPRP	-0.159
RRIRLRPPRLPRPRPRPTRNPRP	0.24
RRIRERPPRLPRPRPRPYAGPRP	-0.000921
RRIRPRPPRLPRPRPRPNTHPRP	-0.00792
RRIRMRPPRLPRPRPRPWADPRP	-0.108
RRIRLRPPRLPRPRPRPTHTPRP	-0.158
RRIRDRPPRLPRPRPRPSNRPRP	-0.052
RRIRMRPPRLPRPRPRPCVMPRP	0.0536
RRIRCRPPRLPRPRPRPCIQPRP	0.0591
RRIRPRPPRLPRPRPRPQVPPRP	0.0319
RRIRWRPPRLPRPRPRPQNNPRP	-0.622
RRIRIRPPRLPRPRPRPCVYPRP	-0.227
RRIRPRPPRLPRPRPRPPSFPRP	0.262
RRIRTRPPRLPRPRPRPDQSPRP	-0.0809
RRIRPRPPRLPRPRPRPSIPPRP	-0.436
RRIRRRPPRLPRPRPRPTWNPRP	0.951
RRIRMRPPRLPRPRPRPRRGPRP	1.09
RRIRGRPPRLPRPRPRPVWNPRP	0.0596
RRIRRRPPRLPRPRPRPAYEPRP	0.138

Sequence	shrunken log2 fold change
RRIRPRPPRLPRPRPRPISDPRP	-0.507
RRIRHRPPRLPRPRPRPLATPRP	-0.0931
RRIRTRPPRLPRPRPRPKKPPRP	-0.0293
RRIRDRPPRLPRPRPRPRVNPRP	-0.149
RRIRPRPPRLPRPRPRPQDCPRP	0.104
RRIRYRPPRLPRPRPRPSDVPRP	-0.199
RRIRVRPPRLPRPRPRPHPIPRP	-0.0473
RRIRLRPPRLPRPRPRPFDVPRP	-0.0798
RRIRRRPPRLPRPRPRPCEHPRP	-0.212
RRIRSRPPRLPRPRPRPWYEPRP	-0.0183
RRIRKRPPRLPRPRPRPSKWPRP	-0.119
RRIRARPPRLPRPRPRPPQTPRP	0.9
RRIRHRPPRLPRPRPRPDPVPRP	0.126
RRIRNRPPRLPRPRPRPIIMPRP	-0.729
RRIRVRPPRLPRPRPRPPDVPRP	-0.286
RRIRTRPPRLPRPRPRPAQAPRP	-0.0199
RRIRARPPRLPRPRPRPTHNPRP	0.523
RRIRFRPPRLPRPRPRPLHWPRP	0.0916
RRIRKRPPRLPRPRPRPEPMPRP	0.504
RRIRCRPPRLPRPRPRPDAPPRP	0.515
RRIRPRPPRLPRPRPRPLNIPRP	-0.809
RRIRGRPPRLPRPRPRPKKFPRP	0.582
RRIRHRPPRLPRPRPRPTMQPRP	-0.0838
RRIRQRPPRLPRPRPRPKYCPRP	0.0636
RRIRNRPPRLPRPRPRPTLAPRP	0.556

Sequence	shrunken log2 fold change
RRIRFRPPRLPRPRPRPLACPRP	-0.162
RRIRCRPPRLPRPRPRPALHPRP	0.179
RRIRCRPPRLPRPRPRPHKRPRP	0.0953
RRIRFRPPRLPRPRPRPRCCPRP	0.164
RRIRYRPPRLPRPRPRPMGSPRP	-0.106
RRIRVRPPRLPRPRPRPPENPRP	-0.0386
RRIRFRPPRLPRPRPRPGCKPRP	-0.222
RRIRNRPPRLPRPRPRPGFCPRP	0.164
RRIRSRPPRLPRPRPRPWKAPRP	-0.00809
RRIRMRPPRLPRPRPRPWFTPRP	-0.263
RRIRMRPPRLPRPRPRPNKVPRP	0.0418
RRIRHRPPRLPRPRPRPNVTPRP	-0.0118
RRIRPRPPRLPRPRPRPHCYPRP	-0.2
RRIRARPPRLPRPRPRPRWWPRP	0.199
RRIRPRPPRLPRPRPRPMRCPRP	0.221
RRIRLRPPRLPRPRPRPNHFPRP	-0.349
RRIRMRPPRLPRPRPRPYYIPRP	-0.227
RRIRKRPPRLPRPRPRPKRFPRP	-0.0257
RRIRKRPPRLPRPRPRPACVPRP	0.735
RRIRQRPPRLPRPRPRPKVYPRP	-0.177
RRIRDRPPRLPRPRPRPIHNPRP	-0.06
RRIRCRPPRLPRPRPRPDYIPRP	0.0495
RRIRVRPPRLPRPRPRPCVTPRP	-0.0293
RRIRGRPPRLPRPRPRPFFMPRP	0.374
RRIRARPPRLPRPRPRPEHMPRP	0.137

Sequence	shrunken log2 fold change
RRIRIRPPRLPRPRPRPYWKPRP	-0.0289
RRIRFRPPRLPRPRPRPNQHPRP	-0.275
RRIRARPPRLPRPRPRPHVNPRP	-0.467
RRIRPRPPRLPRPRPRPGSQPRP	0.127
RRIRGRPPRLPRPRPRPESQPRP	1.57
RRIRIRPPRLPRPRPRPMKMPRP	-0.127
RRIRYRPPRLPRPRPRPSEQPRP	-0.0359
RRIRHRPPRLPRPRPRPACSPRP	-0.104
RRIRKRPPRLPRPRPRPWTPPRP	0.246
RRIRRRPPRLPRPRPRPYPLPRP	0.015
RRIRDRPPRLPRPRPRPYKSPRP	-0.106
RRIRPRPPRLPRPRPRPVLTPRP	0.0816
RRIRNRPPRLPRPRPRPPYNPRP	-0.627
RRIRERPPRLPRPRPRPTGWPRP	0.0993
RRIRMRPPRLPRPRPRPEVIPRP	0.0213
RRIRARPPRLPRPRPRPRYLPRP	-0.351
RRIRLRPPRLPRPRPRPCHMPRP	-0.0107
RRIRKRPPRLPRPRPRPVMHPRP	-0.0631
RRIRQRPPRLPRPRPRPRESPRP	0.0584
RRIRFRPPRLPRPRPRPHGDPRP	0.0644
RRIRHRPPRLPRPRPRPGHNPRP	-0.166
RRIRHRPPRLPRPRPRPAVIPRP	-0.0639
RRIRQRPPRLPRPRPRPHYIPRP	-0.298
RRIRPRPPRLPRPRPRPHDTPRP	-0.272
RRIRERPPRLPRPRPRPIWWPRP	-0.0447
